One block for each binder: values may come before it.
Tests used:
[1] = target: T1, rmCIRP (recombinant murine cold-inducible RNA-binding protein) (mouse, UniProt P60824 1-172); test: SPR; RNA immobilized on SA chip; SPR (BIAcore T200), 1X HBS-EP running buffer; rmCIRP 7.8-500 nM over RNA; pH and temperature not stated; settings: single strand
T1 sequence: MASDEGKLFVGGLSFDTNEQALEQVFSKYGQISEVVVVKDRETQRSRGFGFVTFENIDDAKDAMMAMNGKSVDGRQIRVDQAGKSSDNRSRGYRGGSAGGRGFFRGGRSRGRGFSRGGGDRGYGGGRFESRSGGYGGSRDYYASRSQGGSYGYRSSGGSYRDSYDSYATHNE

[2] = target: T1, rmCIRP (recombinant murine …); test: SPR; RNA immobilized on SA chip; text misprints 8.4 x 10^8 M; SPR (BIAcore T200), 1X HBS-EP running buffer; rmCIRP 7.8-500 nM over RNA; pH and temperature not stated; settings: single strand
TLR4/MD2 complex = TLR4/MD2 complex (human, UniProt O00206;Q9Y6Y9 24-631;19-160); test: SPR; RNA analyte 31.25-1000 nM, no rmCIRP; SPR (BIAcore T200), 1X HBS-EP running buffer; rmCIRP 7.8-500 nM over RNA; pH and temperature not stated; settings: protein: commercial
Sequence of TLR4/MD2 complex (O00206 24-631, chain 1 of 2): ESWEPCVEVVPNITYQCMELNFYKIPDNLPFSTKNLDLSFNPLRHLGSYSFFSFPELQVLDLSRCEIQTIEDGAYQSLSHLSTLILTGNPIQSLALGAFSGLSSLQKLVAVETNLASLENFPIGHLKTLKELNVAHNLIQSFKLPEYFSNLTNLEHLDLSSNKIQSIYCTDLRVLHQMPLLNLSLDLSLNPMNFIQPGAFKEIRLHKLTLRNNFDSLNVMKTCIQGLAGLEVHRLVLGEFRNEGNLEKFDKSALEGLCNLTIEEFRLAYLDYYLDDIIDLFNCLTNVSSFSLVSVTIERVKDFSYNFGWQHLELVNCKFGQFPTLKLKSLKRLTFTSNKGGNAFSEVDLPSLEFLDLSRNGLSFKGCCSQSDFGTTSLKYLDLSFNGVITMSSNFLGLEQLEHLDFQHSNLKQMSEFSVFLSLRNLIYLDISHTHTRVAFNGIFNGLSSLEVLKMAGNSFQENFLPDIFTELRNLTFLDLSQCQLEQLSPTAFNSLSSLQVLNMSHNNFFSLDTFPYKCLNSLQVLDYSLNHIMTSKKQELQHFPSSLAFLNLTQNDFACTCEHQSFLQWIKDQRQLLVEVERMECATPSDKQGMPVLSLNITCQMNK
Sequence of TLR4/MD2 complex (Q9Y6Y9 19-160, chain 2 of 2): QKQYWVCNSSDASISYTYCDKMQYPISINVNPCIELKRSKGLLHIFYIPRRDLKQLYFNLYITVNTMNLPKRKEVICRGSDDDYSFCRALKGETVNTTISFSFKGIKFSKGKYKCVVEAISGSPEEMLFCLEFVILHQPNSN

human TLR4/MD2 complex [3] = target: T2, human TLR4/MD2 complex (human, UniProt O00206 24-631; Q9Y6Y9 19-160); test: SPR; BIAcore T200; human TLR4/MD2 complex immobilised on a CM5 chip; rmCIRP (31.25-500 nM) injected alone as analyte; running buffer 1X HBS-EP; 1:1 binding model; settings: both partners purified
T2 construct: Toll-like receptor 4 (TLR4), human, recombinant, in the bought TLR4/MD2 complex; Myeloid differentiation factor 2 (MD2), human, recombinant, in the bought TLR4/MD2 complex; also called TLR4 and myeloid differentiation factor 2 (MD2) complex; source: bought: R&D Systems
T2 sequence (O00206 24-631, chain 1 of 2): as the sequence (O00206 24-631, chain 1 of 2) above
T2 sequence (Q9Y6Y9 19-160, chain 2 of 2): as the sequence (Q9Y6Y9 19-160, chain 2 of 2) above

human TLR4/MD2 complex [4] = target: T2, human TLR4/MD2 complex; test: SPR; BIAcore T200; human TLR4/MD2 complex immobilised on a CM5 chip; rmCIRP (31.25-1,000 nM) incubated with a constant 50 nM miRNA 130b-3p mimic and injected as analyte; 1X HBS-EP; 1:1 binding model; settings: both partners purified
human TLR4/MD2 complex [5] = target: T2, human TLR4/MD2 complex; test: SPR; BIAcore T200; human TLR4/MD2 complex immobilised on a CM5 chip; rmCIRP (31.25-1,000 nM) incubated with a constant 100 nM miRNA 130b-3p mimic and injected as analyte; 1X HBS-EP; 1:1 binding model; settings: both partners purified

Binder: CAGUGCAAUGAUGAAAGGGCAU (ssRNA) [miRNA 130b-3p mimic, biotinylated]
Kd [1]: 50.1 ± 3 nM

Binder: UUCACAGUGGCUAAGUUCUGC (ssRNA) [miRNA 27b mimic (27b-3p), biotinylated]
Kd [2]: 83.5 ± 3.1 nM

Binder: CAGUGCAAUGAUGAAAGGGCAU (ssRNA) [miRNA 130b-3p mimic (analyte)]
binding result (TLR4/MD2 complex): no binding

Binder: CAGUGGUUUUACCCUAUGGUAG (ssRNA) [miRNA 140 mimic (140-5p), biotinylated]
Kd [1]: 160 ± 1.9 nM

Kd (human TLR4/MD2 complex [3]): 116.5 ± 0.8 nM
KD with 50 nM miRNA 130b-3p mimic (human TLR4/MD2 complex [4]): 420 nM
KD with 100 nM miRNA 130b-3p mimic (human TLR4/MD2 complex [5]): 40000 nM
B1: recombinant murine cold-inducible RNA-binding protein (natural protein, mouse, UniProt P60824 1-172, looked up)
chain: MASDEGKLFVGGLSFDTNEQALEQVFSKYGQISEVVVVKDRETQRSRGFGFVTFENIDDAKDAMMAMNGKSVDGRQIRVDQAGKSSDNRSRGYRGGSAGGRGFFRGGRSRGRGFSRGGGDRGYGGGRFESRSGGYGGSRDYYASRSQGGSYGYRSSGGSYRDSYDSYATHNE
notes: also called rmCIRP; recombinant mouse (rm) CIRP

From article PMC10563445, “Extracellular microRNA 130b‐3p inhibits eCIRP‐induced inflammation” (EMBO Reports, 2019)
